Laboratory results reported in US20160287696A1, “PAN POLLEN IMMUNOGENS AND METHODS AND USES FOR IMMUNE RESPONSE MODULATION” (LA JOLLA INSTITUTE FOR ALLERGY AND IMMUNOLOGY, priority 2013, published 2016).

Test system: cultured PBMCs of the allergic donors
Experiment: ELISPOT of IL-5 or IFNg production by cultured PBMCs of TG allergic donors in response to peptide
Assay type: cell-based, human
Details: for NTGA's containing at least one T cell epitope, Th+ (Col 2): NTGA number given = criterion met, TG allergic donors n=20; for No of PG+ & th+ peptides per NTGA / No of PP & Th+ peptides per NTGA: Table 6; for No of PG+ & th+ peptides per NTGA: PG+ peptides recognized by T cells of grass allergic donors (n=20); for No of PP & Th+ peptides per NTGA: PP peptides recognized by T cells of grass allergic donors (n=20); for # Th+: Table 7, peptides per NTGA recognized by T cells of grass allergic donors (n=20)
Text: Table 1 indicates for each of the 397 PG+ peptides in which non-grass pollen species a matching peptide with either less than 3, less than 2 or zero mismatches are found. The number of TG grass allergic donors (n=20) with an in vitro T cell response to the TG peptide sequence is also shown.
A set of 93 proteins from Timothy grass (TG) pollen and the assembly of 822 peptides (15 mers) predicted to promiscuously bind HLA class II molecules shown in Table 9 and the immune reactivity in allergic donors have been reported in PCT application WO 2013/119863. […] Immune reactivity was determined by the production of IL-5 or IFNg from cultured PBMCs of the allergic donors in response to stimulation with a peptide and IL-5 and IFNg were measured by ELISPOT as described in Oseroff C et al, 2010.
In short, T cell immune reactivity was determined using PBMCs isolated from study participants and stored in liquid nitrogen until further use. For experimental testing, PBMCs were thawed and expanded in vitro with TG pollen extract (50 μg/mL) or the peptide pool ([…]). The TG extract and peptide pools had each been previously titrated to determine optimal stimulation concentrations.
Cytokine production by cultured PBMCs in response to antigen stimulation was measured by ELISPOT. Cells (1×10^5 cells/well) were plated and incubated with peptide (10 μg/mL), the peptide pool (5 μg/mL), or the TG extract (50 μg/mL). Phytohaemagglutinin (10 μg/mL) and medium alone were used as positive and negative controls, respectively. Samples were considered to produce a cytokine if 100 spot-forming cells (SFCs)/10^6 PBMCs were detected, with P .05 and a stimulation index of 2 or more. Criteria for individual peptides were the same except that a minimum of 20 SFCs were required for a sample to be counted as positive.
Table 3 lists the 397 PG+ peptides and indicates for each non-grass pollen species whether a matching peptide with either less than 3, less than 2 or zero mismatches could be detected. The immune reactivity of the TG peptide was assessed as the number of TG grass allergic donors (n=20) having in vitro T cell response against the TG peptide.

| Molecule | NTGA's containing at least one T cell epitope, Th+ (Col 2) | No of PG+ & th+ peptides per NTGA | No of PP & Th+ peptides per NTGA | # Th+ |
| --- | --- | --- | --- | --- |
| NTGA 34: Phl p wild type sequence, Table 2 (protein, Phleum Pratense) MSFSWICACVRAAAVAWEAGKPLSIEEVEVAPPQAMEVRVKILFTALCHTDVYFWEAKGQTPVFPRIFGHEAGGIVESVGEGVTDVAPGDHVLPVFTGECKECRHCKSAESNMCDLLRINTDRGVMISDGKSRFSIDGKPIFHFVGTSTFSEYTVMHVGCVAKINPEAPLDKVCVLSCGISTGLGASINVAKPPKGSTVAIFGLGAVGLAAAEGARIAGASRIIGIDLNANRFEEARKFGCTEFVNPKDHTKPVQEVLAEMTDGGVDRSVECTGNINAMIQAFECVHDGWGVAVLVGVPHKDAEFKTHPMNFLNERTLKGTFFGNFKPRTDLPNVVEMYMKKELEVEKFITHSVTFSEINKAFDLMAKGEGIRCIIRMEH | 34 | 3 | 1 | 0 |
| NTGA 62: Phl p wild type sequence, Table 2 (protein, Phleum Pratense) MRRLSLILLAAAALLAAAVSAEPGPAPKLSPDFYSQTCPRAERIIAEVVQSKQMANPTTAAGVLRVFFHDCFVSGCDASVLIAPTHYAKSEKDADINHSLPGDAFDAVVRSKLALELECPGVVSCADILAIASRVLVTMTGGPRYPVPLGRKDSLSSNPAAPDVELPHSNFTVGRIIELFTAKGFTVQEMVALSGAHTLGFSHCQEFASRIYNYRDKGGKPAPFDPSMNPTYAKGLQAACQDYQKDPTIAAFNDIMTPGKFDNMYYVNIERGLGLLSTDEDMWSDMRTKPFVQRYAANNTDFFEDFAKAIEKLSMYGVKTGADGEIRRRCDAFNSGPNIQ | 62 | 1 | 0 | 2 |
| NTGA 77: Phl p wild type sequence, Table 2 (protein, Phleum Pratense) QEVAGDVRMTDTRADEAERGITIKSTGISLYYEMSEESLASYKGDRDGNDYLINLIDSPGHVDFSSEVTAALRITDGALVVVDCIEGVCVQTETVLRQALGERIRPVLTVNKMDRCFLELQVDGEEAYQTFSRVIENANVIMATYEDALLGDVQVYPEKGTVAFSAGLHGWAFTLTNFAKMYASKFGVDESKMMERLWGENFFDPATKKWTSKNTGSGTCKRGFVQFCYEPIKQIIEICMNDQKDKLWPMLKKLGVTMKNDEKDLMGKALMKRVMQAWLPASRALLEMMVYHLPSPSKAQRYRVENLYEGPLDDVYANAIRNCDPEGPLMLYVSKMIPASDKGRFFAFGRVFAGRVATGMKVRIMGPNFVPGQKKDLYTKSVQRTVIWMGKKQESVEDVPCGNTVALVGLDQFITKNATLTGEKEVDACPIRAMKFSVSPVVRVAVQCKVASDLPKLVEGLKRLAKSDPMVLCSIEESGEHIIAGAGELHLEICLKDLQDDFMGGAEIIVSPPVVSFRETVLDKSCRTVMSKSPNKHNRLYMEARPLEEGLPEAIDEGRIGPRDDPKVRSKILSEEFGWDKDLAKKIWCFGPETTGPNMVVDMCKGVQYLNEIKDSVVAGFQWASKEGALADENMRGICFEVCDVVLHTDAIHRGGGQVIPTARRVIFASQLTAKPRLLEPVYLVEIQAPEGALGGIYGVLNQKRGHVFEEMQRPGTPLYNIKAYLPVIESFGFSATLRAATSGQAFPQCVFDHWDVMNSDPLEVDSQSFNLVKEIRKRKGLKEQMTPLSDFEDKL | 77 | 4 | 2 | 0 |
| NTGA 65: Phl p wild type sequence, Table 2 (protein, Phleum Pratense) AMAVDLTPRQPTKAYGGDGGAYYEWSPAELPMLGVASIGAAKLSLAAGGMSLPSYSDSAKVAYVLQGKGTCGIVLPEATKEKVVAIKEGDALALPFGVVTWWHNTPESSTELVVLFLGDTSKGHTPGKFTNFQLTGATGIFTGFSTEFVARAWDLDQDAAASLVSTQPGTGIVKLAPGHKMPVARAEDRKGMALNCLEAKLDVDIPNGGRVVVLNTVNLPLVKEVGLGADLVRIDAHSMCSPGFSCDSAYQVTYIVRGSGRVQVVGPDGKRVLETRIEGGSLFIVPRFHVVSKIADASGMEWFSIITTPNPIFSHLAGKTSVWKAISPEVLEAAFNTTPEMEKLFRSKRLDSEIFFAPS | 65 | 2 | 0 | 0 |
| NTGA 56: Phl p wild type sequence, Table 2 (protein, Phleum Pratense) MARLLFPLPIAAAAVSASSIHLAASRFRLPVVSAARRGTLFGGRVAVRAPARLATRGVSAGAEAGGSAARAGTVIGPEEALEWVKNDRRRLLHVVYRVGDLDKTIKFYTECLGMKLLRKRDIPEERYTNAFLGYGPEDSHFVVELTYNYGVESYDIGSGFGHFGIAVEDVEKTVELIKAKGGTVTREPGPVKGGKSVIAFIEDPDGYKFELIERGPTPEPLCQVMLRVGDLDRAIKFYEKAFGMELLRRKDNPQYKYTIAMMGYGPEDKNAVLELTYNYGVKEYDKGNAYAQIAIGTDDVYKTAEVVRQNGGQITREPGPLPGISTKITACTDPDGWKSVFVDNLDFLKELEE | 56 | 1 | 1 | 0 |
| NTGA 51: Phl p wild type sequence, Table 2 (protein, Phleum Pratense) MSPAEPTREESVYMAKLAEQAERYEEMVEFMERVAKATGGAGPGEELSVEERNLLSVAYKNVIGARRASWRIISSIEQKEEGRGNDAHATTIRSYRSKIEAELAKICDGILALLDSHLVPSAGAAESKVFYLKMKGDYHRYLAEFKSGAERKEAAESTMNSYKAAQDIALADLAPTHPIRLGLALNFSVFYYEILNSPDRACNLAKQAFDEAISELDSLGEESYKDSTLIMQLLRDNLTLWTSDTNEDGGDEIKEAPAPKESGD | 51 | 2 | 1 | 0 |
| NTGA 76: Phl p wild type sequence, Table 2 (protein, Phleum Pratense) MASHIVGYPRMGPKRELKFALESFWDGKSSAEDLEKVATDLRASIWKQMSEAGIKYIPSNTFSYYDQVLDTTAMLGAVPDRYSWTGGEIGHSTYFSMARGNATVPAMEMTKWFDTNYHFIVPELGPETKFSYASHKAVSEYKEAKALGVDTVPVLVGPVSYLLLSKAAKGVEKSFSLLSLLGGILPIYKEVVAELKAAGASWIQFDEPTLVKDLAAHELAAFSSAYAELESSLSGLNVLIETYFADVPAESYKTLTSLSGVTAYGFDLVRGTKTLDLLKSVGIPSGKYLFAGVVDGRNIWADDLAASLSTLESLEAIVGKDKLVVSTSCSLMHTAVDLVNETKLDSEIKSWLAFAAQKVVEVNALGKALVGLKDEAYFAANAAAQASRRSSPRVNNEEVQKAAAALKGSDHRRATTVSARLDAQQKKLNLPVLPTTTIGSFPQTMDLRRVRREYKAKKISEEAYVSAIKEEISKVVKIQEELDIDVLVHGEPERNDMVEYFGEQLSGFAFTANGWVQSYGSRCVKPPIIYGDVSRPNPMTVFWSKMAQSMTPRPMKGMLTGPV | 76 | 5 | 0 | 0 |
